# Tests used:
# LNCaP cells = assay: LNCaP xenografts in SCID mice; type: in vivo
# Procedure: In Vivo Studies in SCID Mice: Male SCID mice, 4-6 weeks of age, were purchased from the National Cancer Institute (Frederick, Md.). Animals were housed in a pathogen-free environment under controlled conditions of light and humidity and received food and water ad libitum. LNCaP cells were grown in complete medium and 800 μg/ml of G418 until 80% confluent. Cells were scraped into phosphate-buffered saline (PBS), collected by centrifugation, and suspended in Matrigel™ (10 mg/ml) (Collaborative Research, Waltham, Mass.) at 1×10^7 cells/ml. Each mouse received s.c. injections at one site on each flank with 100 μl of cell suspension. Tumors were measured three times a week with calipers, and tumor volumes were calculated by the formula 0.5236×r1^2×r2 (r1<r2). The animal protocols were approved by the Institutional Animal Care and Use Committee at the University of Maryland.
# After sacrifice, tumors were excised and fixed in 10% buffered neutral formalin. Sections of formalin-fixed, paraffin-embedded tissues were cut to 5 μm. Slides were stained with an EPB1 antibody (Upstate) diluted 1:50 using the standard avidin-biotin method (Vector Labs, Burlinghame, Calif.). Peroxidase activity was localized by the diaminobenzidine tetrachloride peroxidase reaction with Harris hematoxylin as a counterstain.
# C81 cells = assay: RT-PCR, Western blot and ELISA in C81 EBP1 transfectants; type: cell-based, human
# Procedure: FIG. 5A-D. Expression of genes associated with androgen independence is decreased in C81 EBP1 transfectants. A. Lysates of logarithmically growing clones of C81 EBP1 transfectants (E1,2) or vector controls (V 1,2) were resolved by SDS-PAGE and immunoblotted for AR, BCL-2, BAD, FLAG, EBP1 and ACTIN as indicated. Representative of 3 experiments. B. Secreted PSA as measured by ELISA. EBP1 and vector control cells were plated at 1×10^6 cells/100 mm dish in complete media. Forty-eight hours later, conditioned media were collected and frozen. PSA activity was assessed by ELISA. Levels of PSA were adjusted to total cell number. Data is representative of 2 experiments. C. Validation of mRNA levels in EBP1 transfectants. Quantitative RT PCR was performed for the KALLIKREIN-2, AGR2 and TSPY genes in EBP1 and vector transfectants. The relative levels of all test mRNAs were normalized to β-ACTIN. Results are representative of 3 experiments using different sets of cells. D. Expression of AGR2 protein in vector and EBP1 C81 transfectants. Lysates of vector control (V) or EBP1 (E) transfected cells grown in complete media were resolved by SDS-PAGE and analyzed by Western blotting with antibody to AGR2.
# Microarray Analysis and Bioinformatics. RNA was prepared using the Trizol Reagent as previously described (8). Microarray processing and data analysis was performed at Genome Explorations (Nashville, Tenn.). U133A oligonucleotide arrays (Affymetrix) containing ˜33,000 full length annotated genes together with additional probe sets designed to represent EST sequences were used for the analysis. Only genes with a minimum expression level of 500 were included in this analysis. […] Oncomine analyses were performed by using Oncomine 3.0 (www.oncomine.org). Real Time Quantitative Reverse-Transcription PCR. Both cell culture samples and a commercial panel of cDNAs from normal prostate and prostate tumors (TissueScan, Origene, Rockville, Md.) were examined. The method of Nakanishi et al. (15) was used as previously described. Real-time quantitative RT-PCR was performed on the LightCycler® (Roche) platform. The following forward and reverse primers were selected using Primer Express software and synthesized by the Core Laboratory of University of Maryland School of Medicine: Ebp1, sense: 5′-GCA CGC CAA TAG AAG G-3′ (SEQ ID NO: 16) and antisense: 5′-GTA AAC GGC ATG GCA TC-3′ (SEQ ID NO: 17) kallikrein-2 sense: 5′-CAT CCA GTC TCG GAT TG-3′ (SEQ ID NO: 18) and antisense: 5′-CTC ATA TTG TAG AGC GGG T-3′ (SEQ ID NO: 19), TSPY, sense: 5′-CAGGGCTTCTCATTCCACTC-3′ (SEQ ID NO: 20) and antisense: 5′-CCATCATATTCAACTCAACAA CTGG-3′ (16; SEQ ID NO: 21), AGR2, sense: 5′-ATTGGCAGAGCAGTTTCTCC-3′ (SEQ ID NO: 22) and antisense, 5′-GAGCTGTATCTGCAGGTTCGT (17; SEQ ID NO: 23) 13-Actin, sense: 5′-GCTATCCAGGCTGTGCTATC-3′ (SEQ ID NO: 24) and antisense 5′-TGT CAC GCA CGA TTT CC-3′ (SEQ ID NO: 25). A SYBR®Green PCR Kit was used as per the manufacturer's instructions (Applied Biosystems, Foster City, Calif.) and the analyses were performed in duplicate or triplicate.
# Measurement of PSA levels. Serum PSA levels were determined using a PSA ELISA kit from DSL, Inc (Webster, Tex.) as previously described (9).
# Western Blot Analysis. Western blot analysis was performed as previously described (19). The Ebp1 antibody was from Upstate (Lake Placid, N.Y.), the polyclonal antibody to actin from Sigma, the AKT and phospho AKT antibodies from Cell Signaling (Beverly, Mass.) and the AGR2 antibody was previously described (20) Cell Growth Assays Cell growth measurement in complete media was performed as described using a hemocytometer (21). For soft agar growth assays, increasing concentrations of cells (as indicated) were plated in 35 mm Petri dishes in 0.3% agar in complete media and colonies were counted after 10 days of incubation (21). […]
# [1] = C81 EBP1 transfectants vs vector controls, real time RT-PCR
# [2] = C81 clones transfected with FLAG-tagged EBP1, Western blot
molecule,measurement,setting,value
"EBP1: ErbB3 binding protein (SEQ ID NO: 2), AR corepressor, here ectopically expressed in cancer cells by stable transfection of an expression plasmid (protein, listed as Homo sapiens, FLAG tag) MSGEDEQQEQTIAEDLVVTKYKMGGDIANRVLRSLVEASSSGVSVLSLCEKGDAMIMEETGKIFKKEKEMKKGIAFPTSISVNNCVCHFSPLKSDQDYILKEGDLVKIDLGVHVDGFIANVAHTFVVDVAQGTQVTGRKADVIKAAHLCAEAALRLVKPGNQNTQVTEAWNKVAHSFNCTPIEGMLSHQLKQHVIDGEKTIIQNPTDQQKKDHEKAEFEVHEVYAVDVLVSSGEGKAKDAGQRTTIYKRDPSKQYGLKMKTSRAFFSEVERRFDAMPFTLRAFEDEKKARMGVVECAKHELLQPFNVLYEKEGEFVAQFKFTVLLMPNGPMRITSGPFEPDLYKSEMEVQDAELKALLQSSASRKTQKKKKKKASKTAENATSGETLEENEAGD",inoculation sites with tumors on day 20,LNCaP cells; EBP1-transfected LNCaP s.c. in SCID mice (vector controls 35%),10%
same,sites that developed tumors at the end of the study,"LNCaP cells; EBP1-transfected LNCaP s.c. in SCID mice (vector more than 85%), p=0.04",less than 40%
same,average tumor volume at the end of the study,"LNCaP cells; EPB1-transfected LNCaP in SCID mice (vector 1214±168), p=0.0003",268±70 mm^3
same,tumor growth rate,"LNCaP cells; EPB1 transfectants vs vector, all time points, p=0.0001",slower
same,AGR2 protein,"C81 cells; C81 EBP1 transfectants in complete media, Western blot",decreased
same,decrease of secreted PSA protein levels,"C81 cells; C81 EBP1 transfectants vs vector controls, ELISA",60%
same,AGR2 mRNA downregulation,C81 cells; [1],over 90%
same,Kallikrein-2 mRNA downregulation,C81 cells; [1],over 80%
same,TSPY mRNA downregulation,"C81 cells; C81 EBP1 transfectants, real time RT-PCR",over 90%
same,AR protein level,C81 cells; [2],markedly reduced
same,BAD protein level,C81 cells; [2],remained the same as the vector controls
same,Bcl2 protein level,C81 cells; [2],markedly reduced

# From US7838495B2, “Compositions and methods of use of EPB1, and ErbB3 binding protein” (University of Maryland, Baltimore, priority 2007, dated 2010)
